# Results: patent US20140206607A1 (INDIANA UNIVERSITY RESEARCH AND TECHNOLOGY, published 2014)
# Numbered stars: 1 amine (or outer) side, 2 acyl side, 3 side chain; on linkers, the order of the positions; unused ones are H or OH. Square brackets hold non-standard residues; d marks the D form. Side chains are listed from the residue outwards. Ends that are not written are not given here. * marks the point of attachment. 40K‑TE PEG = 40 kDa PEG covalently bound via thioether, formed by reaction of the free thiol of the peptide (Cys side chain) with an iodoacetic-functionalized PEG; γGlu = O=C(O)[C@H](CCC(=O)[*:2])N[*:1]; Palmitoyl = CCCCCCCCCCCCCCCC(=O)*; Aib = CC(C)(N)C(=O)O
# T1: GIP receptor (UniProt P48546 22-466)
# T1 sequence (looked up): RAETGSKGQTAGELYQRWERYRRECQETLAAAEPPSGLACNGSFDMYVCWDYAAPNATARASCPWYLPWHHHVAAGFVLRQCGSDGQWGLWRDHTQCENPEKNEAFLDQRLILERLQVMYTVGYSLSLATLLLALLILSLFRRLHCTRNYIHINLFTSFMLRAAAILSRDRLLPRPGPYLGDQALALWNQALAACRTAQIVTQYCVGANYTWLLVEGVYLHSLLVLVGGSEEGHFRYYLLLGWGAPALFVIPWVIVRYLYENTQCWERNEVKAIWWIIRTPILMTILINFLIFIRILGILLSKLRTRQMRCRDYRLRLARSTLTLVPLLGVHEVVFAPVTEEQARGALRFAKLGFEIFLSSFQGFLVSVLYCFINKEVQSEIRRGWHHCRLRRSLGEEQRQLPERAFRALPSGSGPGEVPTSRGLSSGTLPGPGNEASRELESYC
# Experiments:
# Assay in all cases: cell-based or functional assay
# glucagon receptor = glucagon receptor (UniProt P47871 26-477, limits assumed)
# GLP-1 receptor = GLP-1 receptor (UniProt P43220 24-463, limits assumed)
# GIP receptor = target: T1, GIP receptor
# Sequence of glucagon receptor (P47871 26-477 limits assumed): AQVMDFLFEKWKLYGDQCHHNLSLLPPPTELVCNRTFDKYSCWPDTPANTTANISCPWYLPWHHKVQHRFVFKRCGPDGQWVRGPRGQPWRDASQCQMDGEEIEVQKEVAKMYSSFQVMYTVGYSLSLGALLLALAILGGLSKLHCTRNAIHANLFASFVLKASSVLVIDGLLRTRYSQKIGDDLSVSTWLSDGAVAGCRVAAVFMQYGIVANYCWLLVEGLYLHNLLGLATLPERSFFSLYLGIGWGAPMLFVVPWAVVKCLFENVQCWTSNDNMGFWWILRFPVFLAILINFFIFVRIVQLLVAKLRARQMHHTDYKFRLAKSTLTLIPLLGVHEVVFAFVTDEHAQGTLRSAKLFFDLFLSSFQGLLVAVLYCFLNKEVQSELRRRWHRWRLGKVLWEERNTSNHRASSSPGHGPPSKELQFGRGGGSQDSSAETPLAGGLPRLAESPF
binder,measurement,setting,value
H[Aib]QGTFTSDK([γGlu-γGlu-Palmitoyl])SKYLD[Aib]RAAQDFVQWLL[Aib]GRG-NH2 (N-terminus assumed; SMILES CCCCCCCCCCCCCCCC(=O)N[C@@H](CCC(=O)N[C@@H](CCC(=O)NCCCC[C@H](NC(=O)[C@H](CC(=O)O)NC(=O)[C@H](CO)NC(=O)[C@@H](NC(=O)[C@H](Cc1ccccc1)NC(=O)[C@@H](NC(=O)CNC(=O)[C@H](CCC(N)=O)NC(=O)C(C)(C)NC(=O)[C@@H](N)Cc1c[nH]cn1)[C@@H](C)O)[C@@H](C)O)C(=O)N[C@@H](CO)C(=O)N[C@@H](CCCCN)C(=O)N[C@@H](Cc1ccc(O)cc1)C(=O)N[C@@H](CC(C)C)C(=O)N[C@@H](CC(=O)O)C(=O)NC(C)(C)C(=O)N[C@@H](CCCNC(=N)N)C(=O)N[C@@H](C)C(=O)N[C@@H](C)C(=O)N[C@@H](CCC(N)=O)C(=O)N[C@@H](CC(=O)O)C(=O)N[C@@H](Cc1ccccc1)C(=O)N[C@H](C(=O)N[C@@H](CCC(N)=O)C(=O)N[C@@H](Cc1c[nH]c2ccccc12)C(=O)N[C@@H](CC(C)C)C(=O)N[C@@H](CC(C)C)C(=O)NC(C)(C)C(=O)NCC(=O)N[C@@H](CCCNC(=N)N)C(=O)NCC(N)=O)C(C)C)C(=O)O)C(=O)O) [peptide of SEQ ID NO: 29],EC50 (nM) at glucagon receptor,glucagon receptor,0.014 nM
same,EC50 (nM) at GLP-1 receptor,GLP-1 receptor,0.007 nM
same,EC50 (nM) at GIP receptor,GIP receptor,1.65 nM
H[Aib]QGTFTSDK([γGlu-γGlu-Palmitoyl])SKYLD[Aib]RAAQDFVQWLMDTK[dA]-OH (N-terminus assumed; SMILES CCCCCCCCCCCCCCCC(=O)N[C@@H](CCC(=O)N[C@@H](CCC(=O)NCCCC[C@H](NC(=O)[C@H](CC(=O)O)NC(=O)[C@H](CO)NC(=O)[C@@H](NC(=O)[C@H](Cc1ccccc1)NC(=O)[C@@H](NC(=O)CNC(=O)[C@H](CCC(N)=O)NC(=O)C(C)(C)NC(=O)[C@@H](N)Cc1c[nH]cn1)[C@@H](C)O)[C@@H](C)O)C(=O)N[C@@H](CO)C(=O)N[C@@H](CCCCN)C(=O)N[C@@H](Cc1ccc(O)cc1)C(=O)N[C@@H](CC(C)C)C(=O)N[C@@H](CC(=O)O)C(=O)NC(C)(C)C(=O)N[C@@H](CCCNC(=N)N)C(=O)N[C@@H](C)C(=O)N[C@@H](C)C(=O)N[C@@H](CCC(N)=O)C(=O)N[C@@H](CC(=O)O)C(=O)N[C@@H](Cc1ccccc1)C(=O)N[C@H](C(=O)N[C@@H](CCC(N)=O)C(=O)N[C@@H](Cc1c[nH]c2ccccc12)C(=O)N[C@@H](CC(C)C)C(=O)N[C@@H](CCSC)C(=O)N[C@@H](CC(=O)O)C(=O)N[C@H](C(=O)N[C@@H](CCCCN)C(=O)N[C@H](C)C(=O)O)[C@@H](C)O)C(C)C)C(=O)O)C(=O)O) [peptide of SEQ ID NO: 32],EC50 (nM) at glucagon receptor,glucagon receptor,0.007 nM
same,EC50 (nM) at GLP-1 receptor,GLP-1 receptor,0.008 nM
same,EC50 (nM) at GIP receptor,GIP receptor,2.08 nM
H[Aib]QGTFTSDK([γGlu-γGlu-Palmitoyl])SKYLD[Aib]RAAQDFVQWLK[Aib]GRG-NH2 (N-terminus assumed; SMILES CCCCCCCCCCCCCCCC(=O)N[C@@H](CCC(=O)N[C@@H](CCC(=O)NCCCC[C@H](NC(=O)[C@H](CC(=O)O)NC(=O)[C@H](CO)NC(=O)[C@@H](NC(=O)[C@H](Cc1ccccc1)NC(=O)[C@@H](NC(=O)CNC(=O)[C@H](CCC(N)=O)NC(=O)C(C)(C)NC(=O)[C@@H](N)Cc1c[nH]cn1)[C@@H](C)O)[C@@H](C)O)C(=O)N[C@@H](CO)C(=O)N[C@@H](CCCCN)C(=O)N[C@@H](Cc1ccc(O)cc1)C(=O)N[C@@H](CC(C)C)C(=O)N[C@@H](CC(=O)O)C(=O)NC(C)(C)C(=O)N[C@@H](CCCNC(=N)N)C(=O)N[C@@H](C)C(=O)N[C@@H](C)C(=O)N[C@@H](CCC(N)=O)C(=O)N[C@@H](CC(=O)O)C(=O)N[C@@H](Cc1ccccc1)C(=O)N[C@H](C(=O)N[C@@H](CCC(N)=O)C(=O)N[C@@H](Cc1c[nH]c2ccccc12)C(=O)N[C@@H](CC(C)C)C(=O)N[C@@H](CCCCN)C(=O)NC(C)(C)C(=O)NCC(=O)N[C@@H](CCCNC(=N)N)C(=O)NCC(N)=O)C(C)C)C(=O)O)C(=O)O) [peptide of SEQ ID NO: 26],EC50 (nM) at glucagon receptor,glucagon receptor,0.106 nM
same,EC50 (nM) at GLP-1 receptor,GLP-1 receptor,0.004 nM
same,EC50 (nM) at GIP receptor,GIP receptor,3.29 nM
H[Aib]QGTFTSDK([γGlu-γGlu-Palmitoyl])SKYLD[Aib]RAAQDFVQWLMKGRG-OH (N-terminus assumed; SMILES CCCCCCCCCCCCCCCC(=O)N[C@@H](CCC(=O)N[C@@H](CCC(=O)NCCCC[C@H](NC(=O)[C@H](CC(=O)O)NC(=O)[C@H](CO)NC(=O)[C@@H](NC(=O)[C@H](Cc1ccccc1)NC(=O)[C@@H](NC(=O)CNC(=O)[C@H](CCC(N)=O)NC(=O)C(C)(C)NC(=O)[C@@H](N)Cc1c[nH]cn1)[C@@H](C)O)[C@@H](C)O)C(=O)N[C@@H](CO)C(=O)N[C@@H](CCCCN)C(=O)N[C@@H](Cc1ccc(O)cc1)C(=O)N[C@@H](CC(C)C)C(=O)N[C@@H](CC(=O)O)C(=O)NC(C)(C)C(=O)N[C@@H](CCCNC(=N)N)C(=O)N[C@@H](C)C(=O)N[C@@H](C)C(=O)N[C@@H](CCC(N)=O)C(=O)N[C@@H](CC(=O)O)C(=O)N[C@@H](Cc1ccccc1)C(=O)N[C@H](C(=O)N[C@@H](CCC(N)=O)C(=O)N[C@@H](Cc1c[nH]c2ccccc12)C(=O)N[C@@H](CC(C)C)C(=O)N[C@@H](CCSC)C(=O)N[C@@H](CCCCN)C(=O)NCC(=O)N[C@@H](CCCNC(=N)N)C(=O)NCC(=O)O)C(C)C)C(=O)O)C(=O)O) [peptide of SEQ ID NO: 31],EC50 (nM) at glucagon receptor,glucagon receptor,0.016 nM
same,EC50 (nM) at GLP-1 receptor,GLP-1 receptor,0.007 nM
same,EC50 (nM) at GIP receptor,GIP receptor,2.34 nM
H[Aib]QGTFTSDK([γGlu-Palmitoyl])SKYLD[Aib]RAAQDFVQWLLDGRG-NH2 (N-terminus assumed; SMILES CCCCCCCCCCCCCCCC(=O)N[C@@H](CCC(=O)NCCCC[C@H](NC(=O)[C@H](CC(=O)O)NC(=O)[C@H](CO)NC(=O)[C@@H](NC(=O)[C@H](Cc1ccccc1)NC(=O)[C@@H](NC(=O)CNC(=O)[C@H](CCC(N)=O)NC(=O)C(C)(C)NC(=O)[C@@H](N)Cc1c[nH]cn1)[C@@H](C)O)[C@@H](C)O)C(=O)N[C@@H](CO)C(=O)N[C@@H](CCCCN)C(=O)N[C@@H](Cc1ccc(O)cc1)C(=O)N[C@@H](CC(C)C)C(=O)N[C@@H](CC(=O)O)C(=O)NC(C)(C)C(=O)N[C@@H](CCCNC(=N)N)C(=O)N[C@@H](C)C(=O)N[C@@H](C)C(=O)N[C@@H](CCC(N)=O)C(=O)N[C@@H](CC(=O)O)C(=O)N[C@@H](Cc1ccccc1)C(=O)N[C@H](C(=O)N[C@@H](CCC(N)=O)C(=O)N[C@@H](Cc1c[nH]c2ccccc12)C(=O)N[C@@H](CC(C)C)C(=O)N[C@@H](CC(C)C)C(=O)N[C@@H](CC(=O)O)C(=O)NCC(=O)N[C@@H](CCCNC(=N)N)C(=O)NCC(N)=O)C(C)C)C(=O)O) [peptide of SEQ ID NO: 30],EC50 (nM) at glucagon receptor,glucagon receptor,0.933 nM
same,EC50 (nM) at GLP-1 receptor,GLP-1 receptor,0.0082 nM
same,EC50 (nM) at GIP receptor,GIP receptor,9.06 nM
H[dS]QGTFTSDK([γGlu-Palmitoyl])SKYLDERAAQDFVQWLLDGRK-NH2 (N-terminus assumed; SMILES CCCCCCCCCCCCCCCC(=O)N[C@@H](CCC(=O)NCCCC[C@H](NC(=O)[C@H](CC(=O)O)NC(=O)[C@H](CO)NC(=O)[C@@H](NC(=O)[C@H](Cc1ccccc1)NC(=O)[C@@H](NC(=O)CNC(=O)[C@H](CCC(N)=O)NC(=O)[C@@H](CO)NC(=O)[C@@H](N)Cc1c[nH]cn1)[C@@H](C)O)[C@@H](C)O)C(=O)N[C@@H](CO)C(=O)N[C@@H](CCCCN)C(=O)N[C@@H](Cc1ccc(O)cc1)C(=O)N[C@@H](CC(C)C)C(=O)N[C@@H](CC(=O)O)C(=O)N[C@@H](CCC(=O)O)C(=O)N[C@@H](CCCNC(=N)N)C(=O)N[C@@H](C)C(=O)N[C@@H](C)C(=O)N[C@@H](CCC(N)=O)C(=O)N[C@@H](CC(=O)O)C(=O)N[C@@H](Cc1ccccc1)C(=O)N[C@H](C(=O)N[C@@H](CCC(N)=O)C(=O)N[C@@H](Cc1c[nH]c2ccccc12)C(=O)N[C@@H](CC(C)C)C(=O)N[C@@H](CC(C)C)C(=O)N[C@@H](CC(=O)O)C(=O)NCC(=O)N[C@@H](CCCNC(=N)N)C(=O)N[C@@H](CCCCN)C(N)=O)C(C)C)C(=O)O) [peptide of SEQ ID NO: 28],EC50 (nM) at glucagon receptor,glucagon receptor,0.015 nM
same,EC50 (nM) at GLP-1 receptor,GLP-1 receptor,0.003 nM
same,EC50 (nM) at GIP receptor,GIP receptor,2.84 nM
H[dS]QGTFTSDK([γGlu-Palmitoyl])SKYLDERAAQDFVQWLLKGRG-NH2 (N-terminus assumed; SMILES CCCCCCCCCCCCCCCC(=O)N[C@@H](CCC(=O)NCCCC[C@H](NC(=O)[C@H](CC(=O)O)NC(=O)[C@H](CO)NC(=O)[C@@H](NC(=O)[C@H](Cc1ccccc1)NC(=O)[C@@H](NC(=O)CNC(=O)[C@H](CCC(N)=O)NC(=O)[C@@H](CO)NC(=O)[C@@H](N)Cc1c[nH]cn1)[C@@H](C)O)[C@@H](C)O)C(=O)N[C@@H](CO)C(=O)N[C@@H](CCCCN)C(=O)N[C@@H](Cc1ccc(O)cc1)C(=O)N[C@@H](CC(C)C)C(=O)N[C@@H](CC(=O)O)C(=O)N[C@@H](CCC(=O)O)C(=O)N[C@@H](CCCNC(=N)N)C(=O)N[C@@H](C)C(=O)N[C@@H](C)C(=O)N[C@@H](CCC(N)=O)C(=O)N[C@@H](CC(=O)O)C(=O)N[C@@H](Cc1ccccc1)C(=O)N[C@H](C(=O)N[C@@H](CCC(N)=O)C(=O)N[C@@H](Cc1c[nH]c2ccccc12)C(=O)N[C@@H](CC(C)C)C(=O)N[C@@H](CC(C)C)C(=O)N[C@@H](CCCCN)C(=O)NCC(=O)N[C@@H](CCCNC(=N)N)C(=O)NCC(N)=O)C(C)C)C(=O)O) [peptide of SEQ ID NO: 27],EC50 (nM) at glucagon receptor,glucagon receptor,0.022 nM
same,EC50 (nM) at GLP-1 receptor,GLP-1 receptor,0.005 nM
same,EC50 (nM) at GIP receptor,GIP receptor,2.12 nM
H[Aib]QGTFTSDYSKYLDERRA[Aib]EFVC(40K‑TE PEG)WLLDT-NH2 [peptide of SEQ ID NO: 14],EC50 (nM) at glucagon receptor,glucagon receptor,0.365 nM
same,EC50 (nM) at GLP-1 receptor,GLP-1 receptor,0.076 nM
same,EC50 (nM) at GIP receptor,GIP receptor,33.7 nM
